Measured values reported in patent US20250115641A1 (H LEE MOFFITT CANCER CENTER AND RESEARCH INSTITUTE, published 2025).
Values belong to the binder of their own block, whether it stands above or below them. Bridge positions count the residues as written; N and C are the ends. Square brackets hold non-standard residues; d marks the D form. Primed or numbered codes have the meaning given here. S5 = C=CCCC[C@](C)(N)C(=O)O; Nle = CCCC[C@H](N)C(=O)O; FITC′ = fluorescein; βAla = NCCC(=O)O

Legend:
[1] = target: T1, human NLRP3^PYD (residues 3-110, C-terminal 6 x histidine) (human, UniProt Q96P20 3-110); experiment: fluorescence polarization binding assay, FITC-labelled peptide
T1 construct: range 3-110; also called His6-NLRP3^PYD
T1 sequence (Q96P20 other isoform, or with tags, fused parts or gaps limits assumed): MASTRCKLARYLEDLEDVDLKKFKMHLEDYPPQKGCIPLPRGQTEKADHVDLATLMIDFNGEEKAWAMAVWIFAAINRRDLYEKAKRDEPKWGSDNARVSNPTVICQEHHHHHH

[2] = target: T2, human N-terminally GST tagged ASC^PYD (human, UniProt Q9ULZ3 1-106); experiment: as above
T2 construct: range 1-106; Expressed in E. coli from pGEX-4T1; also called GST-ASC^PYD; not shown: N-terminal GST (glutathione S-transferase) tag of the pGEX-4T1 vector
T2 sequence (Q9ULZ3 1-106): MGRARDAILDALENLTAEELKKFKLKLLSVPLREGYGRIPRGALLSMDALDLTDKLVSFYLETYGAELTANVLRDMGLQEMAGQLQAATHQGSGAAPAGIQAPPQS

binding result [1]: binds
Binder: {FITC′}-[βAla]EELKKFK[Nle]KLGTV-NH2 (also called peptide 55) [fPOP1-H2]

binding result [1]: binds
B1: fSAH-POP1-4 (peptide)
peptide: AEXLKKXKXKLGTV
modifications: N-terminal fluorescein (FITC) on β-alanine; S5 = (S)-2-(4-pentenyl)alanine residues covalently linked (hydrocarbon staple); made on Rink amide resin
notes: FITC-labelled stapled peptide; also called peptide 54

fold increase of binding affinity against fSAH-POP1-10 [1]: 10 fold
Binder: {FITC′}-[βAla]Q[S5]LRK[S5]QWKLWTA-NH2 (staple 3-7, also called peptide 63) [fSAH-POP1-12]

binding result [2]: binds
Binder: {FITC′}-[βAla]Q[S5]LRR[S5]QWKLWTS-NH2 (staple 3-7, also called peptide 67) [fSAH-POP1-16]

fold change of KD against fSAH-POP1-4 (higher) [1]: 1.5 fold
B2: fSAH-POP1-5 (peptide)
peptide: AQXLKKXKXKLGTA
modifications: N-terminal fluorescein (FITC) on β-alanine; S5 = (S)-2-(4-pentenyl)alanine residues covalently linked (hydrocarbon staple); made on Rink amide resin
notes: also called peptide 56

fold change of KD against fSAH-POP1-5 (lower) [1]: 2 fold
B3: fSAH-POP1-6 (peptide)
peptide: XQXLKKXKXKLWTA
modifications: N-terminal fluorescein (FITC) on β-alanine; S5 = (S)-2-(4-pentenyl)alanine residues covalently linked (hydrocarbon staple); made on Rink amide resin
notes: also called peptide 57
